In general, IC50 refers to the midpoint of a concentration-inhibition curve. A high value points to weaker potency in that assay.

Here are results for 10 molecules from patent publication US20070111265A1 (VAN ANDEL RESEARCH INSTITUTE, published 2007).

Test [1] deals with T1, MR LBD (C808S) with K785E first charge clamp mutation, 6xHis-GST fusion protein (human, UniProt P08235 727-984).
T1 construct: not shown: glutathione S-transferase (GST) tag; thrombin protease site between GST and the MR LBD
T1 sequence: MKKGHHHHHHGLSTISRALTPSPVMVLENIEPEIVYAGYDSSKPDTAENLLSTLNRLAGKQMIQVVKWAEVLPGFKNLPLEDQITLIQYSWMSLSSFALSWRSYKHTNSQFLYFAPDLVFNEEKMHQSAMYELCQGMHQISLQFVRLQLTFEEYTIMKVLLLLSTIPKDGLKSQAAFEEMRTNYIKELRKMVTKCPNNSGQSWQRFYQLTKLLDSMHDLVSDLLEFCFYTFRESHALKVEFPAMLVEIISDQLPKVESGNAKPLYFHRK
As to the kind of experiment: AlphaScreen, 100 nM corticosterone.

In test [2] the target is T2, MR LBD (C808S) with E962R first charge clamp (AF-2 helix) mutation, 6xHis-GST fusion protein (human, UniProt P08235 727-984).
T2 construct: not shown: glutathione S-transferase (GST) tag; thrombin protease site between GST and the MR LBD
T2 sequence: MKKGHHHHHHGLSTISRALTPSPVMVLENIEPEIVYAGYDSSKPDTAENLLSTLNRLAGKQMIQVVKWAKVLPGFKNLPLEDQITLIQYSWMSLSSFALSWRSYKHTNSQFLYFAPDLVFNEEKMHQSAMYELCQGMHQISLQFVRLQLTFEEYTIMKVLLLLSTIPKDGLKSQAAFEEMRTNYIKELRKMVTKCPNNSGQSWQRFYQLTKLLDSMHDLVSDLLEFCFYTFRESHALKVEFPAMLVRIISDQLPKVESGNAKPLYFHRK
In words: AlphaScreen, 100 nM corticosterone. A general note: Alpha assays give light when donor and acceptor beads are brought close together.

Test [3] concerns the target T3, human MR LBD (residues 727-984) containing a C808S mutation, 6xHis-GST fusion protein (human, UniProt P08235 727-984).
T3 construct: also called purified MR LBD; MR LBD (C808S); not shown: glutathione S-transferase (GST) tag; thrombin protease site between GST and the MR LBD
T3 sequence: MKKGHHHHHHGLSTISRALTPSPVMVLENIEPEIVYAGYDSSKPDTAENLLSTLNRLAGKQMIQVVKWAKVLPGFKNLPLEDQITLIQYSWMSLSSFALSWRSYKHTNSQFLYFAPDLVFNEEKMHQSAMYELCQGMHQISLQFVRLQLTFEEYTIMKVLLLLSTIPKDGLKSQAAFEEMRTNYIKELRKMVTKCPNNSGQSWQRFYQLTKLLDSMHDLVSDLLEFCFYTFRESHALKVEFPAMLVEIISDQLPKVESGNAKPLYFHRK
As to the kind of experiment: AlphaScreen, biotinylated peptide and 6xHis-GST MR LBD/corticosterone.

Test [4] addresses T3, human MR LBD (residues 727-984) …. As to the kind of experiment: AlphaScreen quantitative competition with unlabeled peptide, MR LBD/corticosterone.
Experimental: (§1) The binding of various peptide motifs to MR was determined by AlphaScreen assays using a hexahistidine detection kit from Perkin-Elmer. MR proteins were prepared as 6×His-GST fusion proteins for the assays.
For test [5] the target is unchanged. In words: AlphaScreen competition (IC50 per FIG. 3F legend), MR LBD/corticosterone.
Experimental: as §1

No end group written: not given here.

B1: biotinylated SRC2-3 (TIF2) peptide (peptide)
peptide: QEPVSPKKKENALLRYLLDKDDTKD
modifications: also: biotinylated, site not given here
notes: also called third LXXLL motif of SRC2; TIF2/GRIP1 third motif
B1: the binding result in test [1] is recorded as “no binding”.
As to SPSSHSSLTERHKILHRLLQEGSP (also: biotinylated, site not given here) [biotinylated SRC1-2 peptide], the binding result in test [2] and in test [1] was “no binding” in each case.
Regarding GHSFADPASNLGLEDIIRKALMGSF (also: biotinylated, site not given here, also called N-COR corepressor motif) [biotinylated NCOR-2 peptide], the binding result in test [3] is given as “no binding”.

B2: unlabeled SRC1-4 peptide AQQKSLLQQLLTE (peptide)
peptide: AQQKSLLQQLLTE
notes: treated as one molecule; also called SRC1-4 LXXLL motif
B2 came in with an IC50 in test [4] of 0.9 µM.
Same read-out and setting: the value for SQTSHKLVQLLTTTA (also called 1st motif of SRC1) [unlabeled SRC1-1 peptide] was 21.4 µM.
As for QAVQEHASASTNMGLEAIIRKALMGKY (also: biotinylated, site not given here, also called SMRT corepressor motif) [biotinylated SMRT-2 peptide], the binding result in test [3] is “no binding”.
SKGHKKLLQLLTCSS (also called 1st motif of SRC3) [unlabeled SRC3-1 peptide]: the IC50 in test [4] came out at 16.8 µM.

B3: SRC2-(2+3), human SRC2 fragment (residues 563-763) containing the 2nd and 3rd LXXLL motifs, 6xHis-GST fusion protein (other, UniProt Q15596 563-763, looked up)
chain: QNSPVNMNPPPLSKMGSLDSKDCFGLYGEPSEGTTGQAESSCHPGEQKETNDPNLPPAVSSERADGQSRLHDSKGQTKLLQLLTTKSDQMEPSPLASSLSDTNKDSTGSLPGSGSTHGTSLKEKHKILHRLLQDSSSPVDLAKLTAEATGKDLSQESSSTAPGSEVTIKQEPVSPKKKENALLRYLLDKDDTKDIGLPEIT
notes: No removal of the 6xHis-GST tag is described; also called purified SRC2 fragment; not shown: 6xHis tag; glutathione S-transferase (GST) tag
On to B3, for which the IC50 in test [5] was determined as 0.04 µM.

B4: SRC2-(M2+3), SRC2 fragment (2+3) with the 2nd LXXLL motif mutated to LXXAA (other, UniProt Q15596 563-763, looked up)
chain: QNSPVNMNPPPLSKMGSLDSKDCFGLYGEPSEGTTGQAESSCHPGEQKETNDPNLPPAVSSERADGQSRLHDSKGQTKLLQLLTTKSDQMEPSPLASSLSDTNKDSTGSLPGSGSTHGTSLKEKHKILHRAAQDSSSPVDLAKLTAEATGKDLSQESSSTAPGSEVTIKQEPVSPKKKENALLRYLLDKDDTKDIGLPEIT
notes: not shown: 6xHis tag; glutathione S-transferase (GST) tag
Consider B4, for which the “fold decrease of binding affinity against SRC2-(2+3)” value in test [5] is more than 10 fold.
For QKPTSGPQTPQAQQKSLLQQLLTE (also: biotinylated, site not given here) [biotinylated SRC1-4 peptide], the binding result in test [1] was “no binding”.
